From patent publication US20230212319A1, “NOVEL ANTIGEN BINDING DOMAINS AND SYNTHETIC ANTIGEN RECEPTORS INCORPORATING THE SAME” (University of Southern California, priority 2020, published 2023)

B1: 22048 (protein)
chain: MALPVTALLLPLALLLHAARPQVQLVESGGGLVQPGGSLRLSCAASGFTFTNHAMSWVRQAPGKGLELVSSISGNGRTTYYADSVKGRFTISRDISKNTLDLQMNSLRAEDTAVYYCAKDGGETLVDSRGQGTLVTVSSLEGQPKANPTVTLFPPSSEELQANKATLVCLISDFYPGAVTVAWKADGSPVKAGVETTKPSKQSNNKYAASSYLSLTPEQWKSHRSYSCQVTHEGSTVEKTVAPTECSPIKTDVITMDPKDNCSKDANDTLLLQLTNTSAYYMYLLLLLKSVVYFAIITCCLLRRTAFCCNGEKSRAKRSGSGATNFSLLKQAGDVEENPGPTSMDWIWRILFLVGAATGAHSFEEVQLLESGGGLVQPGGSLRLSCAASGFTFSSYAMSWVRQAPGKGLEWVSSISGSGDYIYYADSVKGRFTISRDISKNTLYLQMNSLRAEDTAVYYCAKEGTGANSSLADYRGQGTLVTVSSTRASTKGPSVFPLAPSSKSTSGGTAALGCLVKDYFPEPVTVSWNSGALTSGVHTFPAVLQSSGLYSLSSVVTVPSSSLGTQTYICNVNHKPSNTKVDKRVEPKSCEVKTDSTDHVKPKETENTKQPSKSCHKPKAIVHTEKVNMMSLTVLGLRMLFAKTVAVNFLLTAKLFFLRAKRSGSGVKQTLNFDLLKLAGDVESNPGPSRGHMTEYKPTVRLATRDDVPRAVRTLAAAFADYPATRHTVDPDRHIERVTELQELFLTRVGLDIGKVWVADDGAAVAVWTTPESVEAGAVFAEIGPRMAELSGSRLAAQQQMEGLLAPHRPKEPAWFLATVGVSPDHQGKGLGSAVVLPGVEAAERAGVPAFLETSAPRNLPFYERLGFTVTADVEVPEGPRTWCMTRKPGA
B2: 22050 (protein)
chain: B1 chain
B3: 22078 (protein)
chain: MALPVTALLLPLALLLHAARPQLQLQESGPGLVKPSETLSLTCTVSGDSISSGDYYWGWIRQPPGKGLEWIGHIYYSGVTYYNPSLKSRVTISVDTSRNQFSLKLSSVTAADTAVYYCTREDSSNWRSRGQGTLVTVSSLESGGGGSFEEVQLLESGGGLVQPGGSLRLSCAASGFTFSSYAMSWVRQAPGKGLEWVSSISGSGDYIYYADSVKGRFTISRDISKNTLYLQMNSLRAEDTAVYYCAKEGTGANSSLADYRGQGTLVTVSSTRASTKGPSVFPLAPSSKSTSGGTAALGCLVKDYFPEPVTVSWNSGALTSGVHTFPAVLQSSGLYSLSSVVTVPSSSLGTQTYICNVNHKPSNTKVDKRVEPKSCEVKTDSTDHVKPKETENTKQPSKSCHKPKAIVHTEKVNMMSLTVLGLRMLFAKTVAVNFLLTAKLFFLRAKRSGSGVKQTLNFDLLKLAGDVESNPGPSRGHMTEYKPTVRLATRDDVPRAVRTLAAAFADYPATRHTVDPDRHIERVTELQELFLTRVGLDIGKVWVADDGAAVAVWTTPESVEAGAVFAEIGPRMAELSGSRLAAQQQMEGLLAPHRPKEPAWFLATVGVSPDHQGKGLGSAVVLPGVEAAERAGVPAFLETSAPRNLPFYERLGFTVTADVEVPEGPRTWCMTRKPGA
B4: 22087 (protein)
chain: MALPVTALLLPLALLLHAARPQVQLVESGGGLVQPGGSLRLSCAASGFTFTNHAMSWVRQAPGKGLELVSSISGNGRTTYYADSVKGRFTISRDISKNTLDLQMNSLRAEDTAVYYCAKDGGETLVDSRGQGTLVTVSSLEGSGGGGSGGGGSGEDLKNVFPPEVAVFEPSEAEISHTQKATLVCLATGFYPDHVELSWWVNGKEVHSGVCTDPQPLKEQPALNDSRYCLSSRLRVSATFWQNPRNHFRCQVQFYGLSENDEWTQDRAKPVTQIVSAEAWGRADCGFTSESYQQGVLSATILYEILLGKATLYAVLVSALVLMAMVKRKDSRGRAKRSGSGATNFSLLKQAGDVEENPGPTSMDWIWRILFLVGAATGAHSFEEVQLLESGGGLVQPGGSLRLSCAASGFTFSSYAMSWVRQAPGKGLEWVSSISGSGDYIYYADSVKGRFTISRDISKNTLYLQMNSLRAEDTAVYYCAKEGTGANSSLADYRGQGTLVTVSSTRGSIPEDTFFPSPESSCDVKLVEKSFETDTNLNFQNLSVIGFRILLLKVAGFNLLMTLRLWSS
B5: 22073 (protein)
chain: MALPVTALLLPLALLLHAARPQLQLQESGPGLVKPSETLSLTCTVSGDSISSGDYYWGWIRQPPGKGLEWIGHIYYSGVTYYNPSLKSRVTISVDTSRNQFSLKLSSVTAADTAVYYCTREDSSNWRSRGQGTLVTVSSLEGQPKANPTVTLFPPSSEELQANKATLVCLISDFYPGAVTVAWKADGSPVKAGVETTKPSKQSNNKYAASSYLSLTPEQWKSHRSYSCQVTHEGSTVEKTVAPTECSGRADCGFTSESYQQGVLSATILYEILLGKATLYAVLVSALVLMAMVKRKDSRGRAKRSGSGATNFSLLKQAGDVEENPGPTSMDWIWRILFLVGAATGAHSFEVQLLESGGGLIQPGGSLRLSCAASGFTFSSHAMTWVRQAPGKGLEWVSAISGSGDYTHYADSVKGRFTISRDNSKNTVYLQMNSLRAEDSAVYYCAKDEDGGSLLGHRGQGTLVTVSSTRIQNPDPAVYQLRDSKSSDKSVCLFTDFDSQTNVSQSKDSDVYITDKCVLDMRSMDFKSNSAVAWSNKSDFACANAFNNSIIPEDTFFPSPESSCDVKLVEKSFETDTNLNFQNLSVIGFRILLLKVAGFNLLMTLRLWSSRAKRSGSGVKQTLNFDLLKLAGDVESNPGPSRGHMTEYKPTVRLATRDDVPRAVRTLAAAFADYPATRHTVDPDRHIERVTELQELFLTRVGLDIGKVWVADDGAAVAVWTTPESVEAGAVFAEIGPRMAELSGSRLAAQQQMEGLLAPHRPKEPAWFLATVGVSPDHQGKGLGSAVVLPGVEAAERAGVPAFLETSAPRNLPFYERLGFTVTADVEVPEGPRTWCMTRKPGA
B6: 22076 (protein)
chain: MALPVTALLLPLALLLHAARPQLQLQESGPGLVKPSETLSLTCTVSGDSISSGDYYWGWIRQPPGKGLEWIGHIYYSGVTYYNPSLKSRVTISVDTSRNQFSLKLSSVTAADTAVYYCTREDSSNWRSRGQGTLVTVSSLESGGGGSFEQVQLVESGGGLVQPGGSLRLSCAASGFTFTNHAMSWVRQAPGKGLELVSSISGNGRTTYYADSVKGRFTISRDISKNTLDLQMNSLRAEDTAVYYCAKDGGETLVDSRGQGTLVTVSSTRASTKGPSVFPLAPSSKSTSGGTAALGCLVKDYFPEPVTVSWNSGALTSGVHTFPAVLQSSGLYSLSSVVTVPSSSLGTQTYICNVNHKPSNTKVDKRVEPKSCIPEDTFFPSPESSCDVKLVEKSFETDTNLNFQNLSVIGFRILLLKVAGFNLLMTLRLWSSRAKRSGSGVKQTLNFDLLKLAGDVESNPGPSRGHMTEYKPTVRLATRDDVPRAVRTLAAAFADYPATRHTVDPDRHIERVTELQELFLTRVGLDIGKVWVADDGAAVAVWTTPESVEAGAVFAEIGPRMAELSGSRLAAQQQMEGLLAPHRPKEPAWFLATVGVSPDHQGKGLGSAVVLPGVEAAERAGVPAFLETSAPRNLPFYERLGFTVTADVEVPEGPRTWCMTRKPGA
B7: 22052 (protein)
chain: MALPVTALLLPLALLLHAARPQLQLQESGPGLVKPSETLSLTCTVSGDSISSGDYYWGWIRQPPGKGLEWIGHIYYSGVTYYNPSLKSRVTISVDTSRNQFSLKLSSVTAADTAVYYCTREDSSNWRSRGQGTLVTVSSLEDKTHTCPPCPAEVKTDSTDHVKPKETENTKQPSKSCHKPKAIVHTEKVNMMSLTVLGLRMLFAKTVAVNFLLTAKLFFLRAKRSGSGVKQTLNFDLLKLAGDVESNPGPTSMDWIWRILFLVGAATGAHSFEVQLLESGGGLIQPGGSLRLSCAASGFTFSSHAMTWVRQAPGKGLEWVSAISGSGDYTHYADSVKGRFTISRDNSKNTVYLQMNSLRAEDSAVYYCAKDEDGGSLLGHRGQGTLVTVSSTRDKTHTCPPCPAIPEDTFFPSPESSCDVKLVEKSFETDTNLNFQNLSVIGFRILLLKVAGFNLLMTLRLWSSRAKRSGSGVKQTLNFDLLKLAGDVESNPGPSRGHMTEYKPTVRLATRDDVPRAVRTLAAAFADYPATRHTVDPDRHIERVTELQELFLTRVGLDIGKVWVADDGAAVAVWTTPESVEAGAVFAEIGPRMAELSGSRLAAQQQMEGLLAPHRPKEPAWFLATVGVSPDHQGKGLGSAVVLPGVEAAERAGVPAFLETSAPRNLPFYERLGFTVTADVEVPEGPRTWCMTRKPGA
B8: 22051 (protein)
chain: MALPVTALLLPLALLLHAARPQLQLQESGPGLVKPSETLSLTCTVSGDSISSGDYYWGWIRQPPGKGLEWIGHIYYSGVTYYNPSLKSRVTISVDTSRNQFSLKLSSVTAADTAVYYCTREDSSNWRSRGQGTLVTVSSLEDKTHTCPPCPAGRADCGFTSESYQQGVLSATILYEILLGKATLYAVLVSALVLMAMVKRKDSRGRAKRSGSGATNFSLLKQAGDVEENPGPTSMDWIWRILFLVGAATGAHSFEVQLLESGGGLIQPGGSLRLSCAASGFTFSSHAMTWVRQAPGKGLEWVSAISGSGDYTHYADSVKGRFTISRDNSKNTVYLQMNSLRAEDSAVYYCAKDEDGGSLLGHRGQGTLVTVSSTRDKTHTCPPCPAEVKTDSTDHVKPKETENTKQPSKSCHKPKAIVHTEKVNMMSLTVLGLRMLFAKTVAVNFLLTAKLFFL

These molecules were tested on RAJI cells (assay: JNG assay, co-culture with RAJI cells). Conditions: JNG cells expressing construct, co-culture with Raji.
Assay type: cell-based
Outline: (§1)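 Read-out is NFAT-driven GFP measured by flow cytometry after ~4–18 h co-culture of SAR-expressing JNG cells with target cells (E:T about 1:2). SARs were introduced by lentiviral spinfection and selected with puromycin or blasticidin when possible; scores (+/- to 5+ ≈ 5–50% GFP+) are relative to parental JNG cells.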
In the case of B1, the “NFAT-GFP ASSAY: Raji” value is reported as “+ (refer to approximately 5%, 10%, 20%, 30%, 40% and 50% GFP positive cells)”. B2 was tested, and the “NFAT-GFP ASSAY: Raji” value was “+ (refer to approximately 5%, 10%, 20%, 30%, 40% and 50% GFP positive cells)”. For B3, the “NFAT-GFP ASSAY: Raji” value was “+/- (refer to approximately 5%, 10%, 20%, 30%, 40% and 50% GFP positive cells)”. For B4, the “NFAT-GFP ASSAY: Raji” value was “+ (refer to approximately 5%, 10%, 20%, 30%, 40% and 50% GFP positive cells)”. For B5, the “NFAT-GFP ASSAY: Raji” value was “+/- (refer to approximately 5%, 10%, 20%, 30%, 40% and 50% GFP positive cells)”. B6 was tested, and the “NFAT-GFP ASSAY: Raji” value was “+/- (refer to approximately 5%, 10%, 20%, 30%, 40% and 50% GFP positive cells)”. For B7, the “NFAT-GFP ASSAY: Raji” value was “+/- (refer to approximately 5%, 10%, 20%, 30%, 40% and 50% GFP positive cells)”. With B8 the “NFAT-GFP ASSAY: Raji” value was “+/- (refer to approximately 5%, 10%, 20%, 30%, 40% and 50% GFP positive cells)”.

The molecules below were run on L363 cells (assay: JNG assay, co-culture with L363 cells). Conditions: co-culture with L363.
Assay type: cell-based
Outline: as §1
For B1, the “NFAT-GFP ASSAY: L363” value was “+/- (refer to approximately 5%, 10%, 20%, 30%, 40% and 50% GFP positive cells)”. For B2, the “NFAT-GFP ASSAY: L363” value was “+/- (refer to approximately 5%, 10%, 20%, 30%, 40% and 50% GFP positive cells)”. B3 was tested, and the “NFAT-GFP ASSAY: L363” value was “+/- (refer to approximately 5%, 10%, 20%, 30%, 40% and 50% GFP positive cells)”. In the case of B4, the “NFAT-GFP ASSAY: L363” value is reported as 2+ (refer to approximately 5%, 10%, 20%, 30%, 40% and 50% GFP positive cells). For B5, the “NFAT-GFP ASSAY: L363” value was “+/- (refer to approximately 5%, 10%, 20%, 30%, 40% and 50% GFP positive cells)”. With B6 the “NFAT-GFP ASSAY: L363” value was “+ (refer to approximately 5%, 10%, 20%, 30%, 40% and 50% GFP positive cells)”. With B7 the “NFAT-GFP ASSAY: L363” value was “+/- (refer to approximately 5%, 10%, 20%, 30%, 40% and 50% GFP positive cells)”. B8 was tested, and the “NFAT-GFP ASSAY: L363” value was “+/- (refer to approximately 5%, 10%, 20%, 30%, 40% and 50% GFP positive cells)”.
